The values that follow are results of earlier work, collected in US20060183681A1, “Stabilized compositions containing natriuretic peptides” (Bio-Rad Laboratories, Inc., priority 2005, published 2006).

For the substance B-type natriuretic peptide [BNP], the “half-life (t1/2) in vivo” value is recorded as “approximately 23 minutes”.
